Starred links: 1 amine or outer side, 2 acyl side, 3 side chain; linkers in the order of their positions; H or OH if unused. Non-standard residues stand in square brackets, D forms with d. Groups on a side chain read outwards from the residue. *: point of attachment. Butyryl(4-SO2NHCO(CH2)16Tz) = O=C(CCCCCCCCCCCCCCCCc1nnn[nH]1)NS(=O)(=O)CCCC(=O)*; Undecanoyl(11-OPh(4-COOH)) = O=C(O)c1ccc(OCCCCCCCCCCC(=O)*)cc1; Decanoyl(10-(4-HOOC-PhO)) = O=C(O)c1ccc(OCCCCCCCCCC(=O)*)cc1; Decanoyl(10-O(3-COOH-Ph)) = O=C(O)c1cccc(OCCCCCCCCCC(=O)*)c1; C20 diacid = O=C(O)CCCCCCCCCCCCCCCCCCC(=O)*; C18 diacid = O=C(O)CCCCCCCCCCCCCCCCC(=O)*; C16 diacid = O=C(O)CCCCCCCCCCCCCCC(=O)*; γGlu = O=C(O)[C@H](CCC(=O)[*:2])N[*:1]; C14 diacid = O=C(O)CCCCCCCCCCCCC(=O)*; Desaminohistidyl = O=C(CCc1c[nH]cn1)*; εLys = N[C@@H](CCCCN[*:1])C(=O)[*:2]; Trx = NC[C@H]1CC[C@H](C(=O)O)CC1; AEEA = NCCOCCOCC(=O)O; Aib = CC(C)(N)C(=O)O
T1: human amylin-3 (a) receptor (human, UniProt P30988 25-474; O60896 24-148)
T1 sequence (looked up) 1: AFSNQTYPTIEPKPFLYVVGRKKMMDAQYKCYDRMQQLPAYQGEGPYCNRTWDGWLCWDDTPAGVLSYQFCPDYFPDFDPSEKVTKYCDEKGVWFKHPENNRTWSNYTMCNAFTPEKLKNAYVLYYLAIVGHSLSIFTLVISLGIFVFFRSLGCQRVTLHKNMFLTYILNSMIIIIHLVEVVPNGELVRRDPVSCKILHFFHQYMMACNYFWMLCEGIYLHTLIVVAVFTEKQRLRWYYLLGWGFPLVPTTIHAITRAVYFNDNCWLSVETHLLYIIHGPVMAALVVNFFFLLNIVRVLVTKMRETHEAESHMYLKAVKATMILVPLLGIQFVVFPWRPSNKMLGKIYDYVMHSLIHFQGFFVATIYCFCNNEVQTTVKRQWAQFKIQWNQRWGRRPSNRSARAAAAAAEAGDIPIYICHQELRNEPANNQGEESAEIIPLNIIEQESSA
T1 sequence (looked up) 2: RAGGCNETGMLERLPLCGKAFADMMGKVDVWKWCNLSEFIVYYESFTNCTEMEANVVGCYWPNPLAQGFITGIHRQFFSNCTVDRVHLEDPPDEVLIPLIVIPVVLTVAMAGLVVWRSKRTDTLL


Experiments:
[1] = biological target: human GLP-1 receptor (human, UniProt P43220 24-463); test: cell-based or functional assay
[2] = biological target: T1, human amylin-3 (a) receptor; test: cell-based or functional assay

| Binder | Human GLP-1R potency [EC50 (pM)] [1] [pM] | Human AmyR3 potency [EC50 (pM)] [2] [pM] |
| --- | --- | --- |
| Compound 0260 (peptide) peptide: H[Aib]EGTFTSDK([AEEA-AEEA-γGlu-C16 diacid])SSYLEEQAAREFIAWLVRGRGGGGGEASELSTAALGRLSAELHELK([AEEA-AEEA-γGlu-C16 diacid])TLPRTETGSGSP-NH2 | 11.9 | 41.8 |
| Compound 0146 (peptide) peptide: H[Aib]EGTFTSDVSSYLEEQAAREFIEWLVRGK(Butyryl(4-SO2NHCO(CH2)16Tz))GGGASELSTAALGRLSAELHELATLPRTETGSGSP-NH2 | 25.7 | 14 |
| Compound 0255 (peptide) peptide: HWEGTFTSDVSSYLEEQAARK([AEEA-AEEA-γGlu-Undecanoyl(11-OPh(4-COOH))])FIEWLVRGRGEGGGGGASELSTAALGRLSK([AEEA-AEEA-γGlu-Undecanoyl(11-OPh(4-COOH))])ELHELATLPRTETGSGSP-NH2 | 2.5 | 28.6 |
| Compound 0142 (peptide) peptide: [Desaminohistidyl][Aib]EGTFTSDVSSYLEEQAAREFIAWLVRGRK([γGlu-C20 diacid])EASELSTAALGRLSAELHELATLPRTETGSGSP-NH2 | 88.2 | 15.4 |
| Compound 0151 (peptide) peptide: H[Aib]EGTFTSDVSSYLEGQAAREFIAWLVRGRK([AEEA-AEEA-γGlu-C18 diacid])GGGGEASELSTAALGRLSAELHELATLPRTETGSGSP-NH2 | 10.4 | 9.5 |
| Compound 0157 (peptide) peptide: H[Aib]EGTFTSDVSSYLEGQAAK([AEEA-AEEA-γGlu-C20 diacid])EFIAWLVRGRGQAPGQEPEASELSTAALGRLSAELHELATLPRTETGSGSP-NH2 | 28.7 | 18.4 |
| Compound 0180 (peptide) peptide: H[Aib]EGTFTSDVSSYLEEQAAREFIEWLVRGRK([εLys-AEEA-AEEA-γGlu-Trx-C20 diacid])EAEAEASELSTAALGRLSAELHELATLPRTETGSGSP-NH2 | 6.4 | 37 |
| Compound 0147 (peptide) peptide: H[Aib]EGTFTSDVSSYLEEQAAREFIEWLVRGK(Butyryl(4-SO2NHCO(CH2)16Tz))ASELSTAALGRLSAELHELATLPRTETGSGSP-NH2 | 36.8 | 33.7 |
| Compound 0145 (peptide) peptide: H[Aib]EGTFTSDVSSYLEEQAAREFIAWLVRGRGK(Butyryl(4-SO2NHCO(CH2)16Tz))GGGASELSTAALGRLSAELHELATLPRTETGSGSP-NH2 | 11.9 | 16.5 |
| Compound 0259 (peptide) peptide: H[Aib]EGTFTSDK([AEEA-AEEA-γGlu-C16 diacid])SSYLEEQAAREFIAWLVRGRGGGGGEASELSTAALGRLSAELHK([AEEA-AEEA-γGlu-C16 diacid])LATLPRTETGSGSP-NH2 | 15.8 | 12 |
| Compound 0144 (peptide) peptide: H[Aib]EGTFTSDVSSYLEEQAAREFIAWLVK([AEEA-AEEA-γGlu-C18 diacid])GRGGGGGEASELSTAALGRLSAELHELATLPRTETGSGSP-NH2 | 7.1 | 16.8 |
| Compound 0179 (peptide) peptide: H[Aib]EGTFTSDVSSYLEEQAAREFIEWLVRGRK([AEEA-AEEA-γGlu-Trx-C20 diacid])EAEAEASELSTAALGRLSAELHELATLPRTETGSGSP-NH2 | 8.8 | 35.9 |
| Compound 0141 (peptide) peptide: H[Aib]EGTFTSDVSSYLEEQAAREFIAWLVRGRK([γGlu-C20 diacid])EASELSTAALGRLSAELHELATLPRTETGSGSP-NH2 | 43.3 | 13.2 |
| Compound 0231 (peptide) peptide: HWEGTFTSDVSSYLEEQAARK([AEEA-AEEA-γGlu-Decanoyl(10-(4-HOOC-PhO))])FIEWLVRGRGEGGGGGASELSTAALGRLSK([AEEA-AEEA-γGlu-Decanoyl(10-(4-HOOC-PhO))])ELHELATLPRTETGSGSP-NH2 | 5.6 | 68 |
| Compound 0191 (peptide) peptide: H[Aib]EGTFTSDVSSYLEGQAAREFIAWLVRGRGQEPK([AEEA-AEEA-γGlu-C18 diacid])GQAPASRLSTEALGRLSAELHELATLPRTETGSGSP-NH2 | 5.9 | 54.8 |
| Compound 0039 (peptide) peptide: HGEGTFTSDVSSYLEEQAARK([AEEA-AEEA-γGlu-C14 diacid])FIEWLVRGK([AEEA-AEEA-γGlu-C14 diacid])GEASELSTAALGRLSAELHELATLPRTETGSGSP-NH2 | 34.8 | 59.5 |
| Compound 0254 (peptide) peptide: HWEGTFTSDVSSYLEEQAARK([AEEA-AEEA-γGlu-Trx-C20 diacid])FIEWLVRGRGEGGGGGASELSTAALGRLSAELHELATLPRTETGSGSP-NH2 | 8.9 | 7.7 |
| Compound 0235 (peptide) peptide: H[Aib]EGTFTSDVSSYLEEQAAREFIAWLVRGK([AEEA-AEEA-γGlu-Decanoyl(10-O(3-COOH-Ph))])K([AEEA-AEEA-γGlu-Decanoyl(10-O(3-COOH-Ph))])GGGGASELSTAALGRLSAELHELATLPRTETGSGSP-NH2 | 10.4 | 24 |
| Compound 0234 (peptide) peptide: HWEGTFTSDVSSYLEEQAAREFIEWLVRGK([AEEA-AEEA-γGlu-Decanoyl(10-(4-HOOC-PhO))])GEGGGGGASELSTAALGRLSAELHELK([AEEA-AEEA-γGlu-Decanoyl(10-(4-HOOC-PhO))])TLPRTETGSGSP-NH2 | 38.9 | 38.4 |
| Compound 0232 (peptide) peptide: HWEGTFTSDVSSYLEEQAARK([AEEA-AEEA-γGlu-Decanoyl(10-(4-HOOC-PhO))])FIEWLVRGRGEGGGGGASELSTAALGRLSAELHELK([AEEA-AEEA-γGlu-Decanoyl(10-(4-HOOC-PhO))])TLPRTETGSGSP-NH2 | 6.4 | 74.2 |
| Compound 0202 (peptide) peptide: H[Aib]EGTFTSDVSSYLEGQAAK([AEEA-AEEA-γGlu-C20 diacid])EFIAWLVRGRGQEPGQAPEASELSTAALGRLSAELHELATLPRTETGSGSP-NH2 | 10.5 | 28.4 |
| Compound 0156 (peptide) peptide: H[Aib]EGTFTSDVSSYLEGQAAK([AEEA-AEEA-γGlu-C18 diacid])EFIAWLVRGRGQAPGQEPEASELSTAALGRLSAELHELATLPRTETGSGSP-NH2 | 22.6 | 22.6 |
| Compound 0040 (peptide) peptide: H[Aib]EGTFTSDVSSYLEGQAAK([AEEA-AEEA-γGlu-C18 diacid])EFIAWLVRGRGGGGEASELSTAALGRLSAELHELATLPRTETGSGSP-NH2 | 20.7 | 7.7 |
| Compound 0159 (peptide) peptide: H[Aib]EGTFTSDVSSYLEGQAAK([εLys-AEEA-AEEA-γGlu-C18 diacid])EFIAWLVRGRGGGGGGGGGEASELSTAALGRLSAELHELATLPRTETGSGSP-NH2 | 30.3 | 19.3 |
| Compound 0233 (peptide) peptide: HWEGTFTSDVSSYLEEQAAREFIEWLVRGK([AEEA-AEEA-γGlu-Decanoyl(10-(4-HOOC-PhO))])GEGGGGGASELSTAALGRLSK([AEEA-AEEA-γGlu-Decanoyl(10-(4-HOOC-PhO))])ELHELATLPRTETGSGSP-NH2 | 46.4 | 182 |
| Compound 0160 (peptide) peptide: H[Aib]EGTFTSDVSSYLEEQAARK([γGlu-C18 diacid])FIAWLVRGRGGGGGGGGK([γGlu-C18 diacid])EASELSTAALGRLSAELHELATLPRTETGSGSP-NH2 | 11.9 | 27.3 |

Reference: patent publication US20260132182A1 (published 2026)
